Assay [1] addresses human IL-13 variant (R130Q) (human) (UniProt P35225). In words: SPR (Biacore).
Assay [2] deals with human IL-13 wild type (human) (UniProt P35225). In words: SPR (Biacore). A general note: In SPR one partner is held on a chip, and binding of the other changes the refractive index at the surface.
For assay [3] the target is unchanged. In words: ELISA-based receptor binding assay, IL-13 binding to IL-13Rα2/Fc.
Assay [4] has the same target. Kind of assay: ELISA-based receptor binding assay, blocking biotin-IL-13 binding to IL-13Rα2/Fc.
The target is the same in assay [5]. Kind of assay: cell surface-based receptor binding assay, IL-13 binding to IL-13Rα2 on COS cells.
Assay [6] shares this target. Kind of assay: cell surface-based receptor binding assay, blocking 125I-IL-13 binding to IL-13Rα2-transfected COS cells.

human IL-13 wild type (human), sequence (P35225 other isoform, or with tags, fused parts or gaps limits assumed): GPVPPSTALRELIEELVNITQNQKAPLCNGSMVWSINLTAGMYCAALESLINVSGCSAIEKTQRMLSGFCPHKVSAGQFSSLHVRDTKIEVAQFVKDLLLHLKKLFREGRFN
human IL-13 variant (R130Q) (human), sequence (P35225 35-146 limits assumed, stated change not applied): as the sequence (P35225 other isoform, or with tags, fused parts or gaps limits assumed) above, with R110Q counted along it

B1: MJ2-7 (antibody, from another filing, V domains shown)
VH: EVQLQQSGAELVKPGASVKLSCTGSGFNIKDTYIHWVKQRPEQGLEWIGRIDPANDNIKYDPKFQGKATITADTSSNTAYLQLNSLTSEDTAVYYCARSEENWYDFFDYWGQGTTLTVSS
VL: DVLMTQTPLSLPVSLGDQASISCRSSQSIVHSNGNTYLEWYLQKPGQSPKLLIYKVSNRFSGVPDRFSGSGSGTDFTLKISRVEAEDLGVYYCFQGSHIPYTFGGGTKLEIK
Regarding B1, the dissociation constant (Kd) (commonly the constant that tells how readily two partners part at equilibrium) worked out at 0.79 nM in assay [1] and 1.14 nM in assay [2]. For the same molecule, the % inhibition (as a rule, the change of the read-out against control, counted positive when it falls) at 100 nM in assay [3] is 60%; in assay [5], 70%. In addition, the IC50 (usually the concentration needed to halve the response being measured) was determined as 19 nM in assay [4] and 17.6 nM in assay [6].

These data come from patent US20110165066A1.
